Assay results published in publication PMC9054013 (2022).
Blank lines part the entries; values can stand above or below the binder they belong to.

What was measured:
Test in all cases: ITC
[1] = target: AP2 α-appendage (residues 695 to 938) (UniProt P17427 695-938)
[2] = target: FCHO2-N1+N2 E336A+F339S (human, UniProt Q0JRZ9-1 314-394, E336A | F339S)
[3] = target: FCHO2-N1+N2 EEK mutant (human, UniProt Q0JRZ9-1 314-394, E320S | E321S | K326S)

Sequence of AP2 α-appendage (residues 695 to 938) (P17427 695-938): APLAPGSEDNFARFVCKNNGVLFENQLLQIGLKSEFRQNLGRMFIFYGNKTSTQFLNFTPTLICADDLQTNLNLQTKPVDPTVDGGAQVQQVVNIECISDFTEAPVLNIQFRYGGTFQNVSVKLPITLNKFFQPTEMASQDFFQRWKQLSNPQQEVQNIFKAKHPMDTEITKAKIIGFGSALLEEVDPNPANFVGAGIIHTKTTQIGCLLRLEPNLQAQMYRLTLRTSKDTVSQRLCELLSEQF

- Kd [1]: 44 µM
Binder: QSEEQVSKNLFGPPLESAFDHED [FCHO1 C peptide (residues 426 to 448)]

- Kd [2]: 55 µM
- Kd [3]: 110 µM
B1: Cμ2 (μ2 residues 160 to 435) (domain or fragment)
chain: GWRREGIKYRRNELFLDVLESVNLLMSPQGQVLSAHVSGRVVMKSYLSGMPECKFGMNDKIVIEKQGKGTADETSKSGKQSIAIDDCTFHQCVRLSKFDSERSISFIPPDGEFELMRYRTTKDIILPFRVIPLVREVGRTKLEVKVVIKSNFKPSLLAQKIEVRIPTPLNTSGVQVICMKGKAKYKASENAIVWKIKRMAGMKESQISAEIELLPTNDKKKWARPPISMNFEVPFAPSGLKVRYLKVFEPKLNYSDHDVIKWVRYIGRSGIYETRC
